Source: article PMC5977221
Values joined by “and” are separate entries in the source; they are usually repeats but may differ in a detail not shown here. Equal values may be shown once.

What was measured:
[1] = test system: BAA2326 repressor (Shiga toxin-encoding bacteriophage BAA2326 (from STEC)); experiment: EMSA; settings: for binding signal: scale: fold Kd relative to separate OR1
[2] = test system: BAA2326 repressor (Shiga toxin-encoding bacteriophage BAA2326 (from STEC)); experiment: DNaseI footprinting

| Substance | binding signal [1] | other results |
| --- | --- | --- |
| GCGAATTCACTAAAGCACTTGCAATATCACCTTTGGTTATATGTAATGCCATAATAACTAAGAAGCTTCC (double strand) [BAA2326 OR3 oligonucleotide] | 2.5 | – |
| GCGAATTCACTAAAGCACTTGCAATATGTAATGAAATATCTGCGGTGTTGACATTCCATAATAACTAAGAAGCTTCC (double strand) [BAA2326 OR2 oligonucleotide] | 83.3 | – |
| GCGAATTCACTAAAGCACTTGCATTTAATAACTGTGCGTAATGATATGCCATAATAACTAAGAAGCTTCC (double strand) [BAA2326 OR1 oligonucleotide] | – | Kd [1]: 0.42 nM |
| intact BAA2326 OR, wild type | – | Kd [2]: 28.6 nM and 44 nM and 59.1 nM |
